Measurements taken from patent publication US20230220589A1.

Columns and labels:
[1] = biological target: M44-modified M NTAA target peptides; experiment: encoding assay; P2 N
[2] = biological target: M44-modified Y NTAA target peptides (M44-Y-P2-peptide); experiment: encoding assay; P2 N
[3] = biological target: M44-modified T NTAA target peptides; experiment: encoding assay; P2 P
[4] = biological target: M44-modified P NTAA target peptides; experiment: encoding assay; P2 P
[5] = biological target: M44-modified W NTAA target peptides; experiment: encoding assay; P2 P
[6] = biological target: M44-modified V NTAA target peptides; experiment: encoding assay; P2 P
[7] = biological target: M44-modified G NTAA target peptides (M44-G-P2-peptide); experiment: encoding assay; P2 P
[8] = biological target: M44-modified L NTAA target peptides (M44-L-P2-peptide); experiment: encoding assay; P2 M
[9] = biological target: M44-modified M NTAA target peptides; experiment: encoding assay; P2 M
[10] = biological target: M44-modified T NTAA target peptides; experiment: encoding assay; P2 M
[11] = biological target: M44-modified P NTAA target peptides; experiment: encoding assay; P2 M
[12] = biological target: M44-modified I NTAA target peptides (M44-I-P2-peptide); experiment: encoding assay; P2 M
[13] = biological target: M44-modified E NTAA target peptides; experiment: encoding assay; P2 M
[14] = biological target: M44-modified Y NTAA target peptides (M44-Y-P2-peptide); experiment: encoding assay; P2 M
[15] = biological target: M44-modified N NTAA target peptides; experiment: encoding assay; P2 M
[16] = biological target: M44-modified V NTAA target peptides; experiment: encoding assay; P2 M
[17] = biological target: M44-modified F NTAA target peptides (M44-F-P2-peptide); experiment: encoding assay; P2 M
[18] = biological target: M44-modified S NTAA target peptides; experiment: encoding assay; P2 G
[19] = biological target: M44-modified H NTAA target peptides; experiment: encoding assay; P2 G
[20] = biological target: M44-modified A NTAA target peptides (M44-A-P2-peptide); experiment: encoding assay; P2 G
[21] = biological target: M44-modified L NTAA target peptides (M44-L-P2-peptide); experiment: encoding assay; P2 S
[22] = biological target: M44-modified M NTAA target peptides; experiment: encoding assay; P2 S
[23] = biological target: M44-modified T NTAA target peptides; experiment: encoding assay; P2 S
[24] = biological target: M44-modified H NTAA target peptides; experiment: encoding assay; P2 S
[25] = biological target: M44-modified Q NTAA target peptides; experiment: encoding assay; P2 S
[26] = biological target: M44-modified P NTAA target peptides; experiment: encoding assay; P2 S
[27] = biological target: M44-modified I NTAA target peptides (M44-I-P2-peptide); experiment: encoding assay; P2 S
[28] = biological target: M44-modified Y NTAA target peptides (M44-Y-P2-peptide); experiment: encoding assay; P2 S
[29] = biological target: M44-modified V NTAA target peptides; experiment: encoding assay; P2 S
[30] = biological target: M44-modified A NTAA target peptides (M44-A-P2-peptide); experiment: encoding assay; P2 S
[31] = biological target: M44-modified G NTAA target peptides (M44-G-P2-peptide); experiment: encoding assay; P2 S
[32] = biological target: M44-modified F NTAA target peptides (M44-F-P2-peptide); experiment: encoding assay; P2 S
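Note: fraction of recording tags encoded.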

B1: engineered M44-A binder (SEQ ID NO: 42) (designed binder, not shown: small tags and cut ends; large carriers)
chain: QVSVQPNFQQDKFLGRWFVAGLASNSSWDREKVAALSGAKMVVAPATDGGLNVTRTMLRKNQCETYTGLLQPAGSLGSYSWRSPHPGSTGSESVVETDYDQYALVYGQGSKGPGEDLRAAALWSRTQTPRAELKEKFTAFSKAQGFTEDTIVFLPQTDKCMTEQ
B1 showed an encoding yield [1] of 0.02, an encoding yield [2] of 0.05 and an encoding yield [3] of 0.01. It also gave an encoding yield [4] of 0.01, an encoding yield [5] of 0.01 and an encoding yield [6] of 0.01. For the same binder, the encoding yield [7] was 0.01, the encoding yield [8] was 0 and the encoding yield [9] was 0.02. For the same binder, the encoding yield [10] was 0.21, the encoding yield [11] was 0.03 and the encoding yield [12] was 0.15. The encoding yield [13] was 0.03, the encoding yield [14] was 0.03 and the encoding yield [15] was 0.02. It also gave an encoding yield [16] of 0.12, an encoding yield [17] of 0.04 and an encoding yield [18] of 0.01. For the same binder, the encoding yield [19] was 0.02, the encoding yield [20] was 0.07 and the encoding yield [21] was 0.05. It also gave an encoding yield [22] of 0.05, an encoding yield [23] of 0.06 and an encoding yield [24] of 0.01. The encoding yield [25] was 0.03, the encoding yield [26] was 0.01 and the encoding yield [27] was 0.03. It also gave an encoding yield [28] of 0.06, an encoding yield [29] of 0.03 and an encoding yield [30] of 0.1. The encoding yield [31] was 0.05 and the encoding yield [32] was 0.03.
